# Measurements from article PMC3934934, “The Self-Interaction of a Nodavirus Replicase Is Enhanced by Mitochondrial Membrane Lipids” (PLoS ONE, 2014).
# T1: MBP-protA fragment aa 481–659 (Wuhan nodavirus (WhNV), UniProt Q3KSM3 481-659)
# T1 construct: source: E. coli strain TB1, purified (amylose resin); not shown: MBP, N-terminal, kept
# T1 sequence: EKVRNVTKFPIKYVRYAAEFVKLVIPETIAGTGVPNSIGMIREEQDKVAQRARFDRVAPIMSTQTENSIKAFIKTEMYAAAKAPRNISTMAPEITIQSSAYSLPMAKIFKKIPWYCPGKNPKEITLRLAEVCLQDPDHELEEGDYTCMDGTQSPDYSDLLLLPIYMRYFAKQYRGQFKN
# T2: MBP-protA fragment aa 255–480 (Wuhan nodavirus (WhNV), UniProt Q3KSM3 255-480)
# T2 construct: source: E. coli strain TB1, purified (amylose resin); not shown: MBP, N-terminal, kept
# T2 sequence: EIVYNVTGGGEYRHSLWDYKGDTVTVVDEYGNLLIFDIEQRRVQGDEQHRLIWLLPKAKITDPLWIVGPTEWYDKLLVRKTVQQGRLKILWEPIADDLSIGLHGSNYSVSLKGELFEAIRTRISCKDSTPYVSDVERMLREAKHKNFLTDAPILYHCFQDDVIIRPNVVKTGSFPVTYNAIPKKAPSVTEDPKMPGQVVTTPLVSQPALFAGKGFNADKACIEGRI
# T3: MBP-protA fragment aa 1–254 (Wuhan nodavirus (WhNV), UniProt Q3KSM3 1-254)
# T3 construct: also called 1–254 MBP/protA; source: E. coli strain TB1, purified (amylose resin); not shown: MBP, N-terminal, kept
# T3 sequence: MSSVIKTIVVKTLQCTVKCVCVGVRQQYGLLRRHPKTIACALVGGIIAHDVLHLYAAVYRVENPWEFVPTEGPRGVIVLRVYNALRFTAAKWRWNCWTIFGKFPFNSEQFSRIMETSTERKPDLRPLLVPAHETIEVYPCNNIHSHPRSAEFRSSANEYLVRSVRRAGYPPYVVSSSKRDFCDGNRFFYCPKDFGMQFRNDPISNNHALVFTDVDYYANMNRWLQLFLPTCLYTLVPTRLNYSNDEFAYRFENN
# How the values were obtained:
# [1] = biological target: T1, MBP-protA fragment aa 481–659; assay: pull-down; MBP fusion protein (1 µM) held on amylose resin, His-tagged protein (1 µM) in vitro translated in rabbit reticulocyte lysate; room temperature, 4 hrs; no lipids; Western blot with anti-His; signals given as % of FL to FL protein A self-interaction; conditions: one partner purified
# [2] = biological target: T2, MBP-protA fragment aa 255–480; assay: as above; conditions: one partner purified
# [3] = biological target: the molecule itself; assay: cross-linking; MBP-tagged protein in cross-linking buffer (10 mM HEPES pH 7.4, 50 mM MgCl2, 1 mM DTT, 1% glycerol, 0.03% glutaraldehyde), then 10% SDS-PAGE
# [4] = biological target: T3, MBP-protA fragment aa 1–254; assay: pull-down; MBP fusion protein (1 µM) held on amylose resin, His-tagged protein (1 µM) in vitro translated in rabbit reticulocyte lysate; room temperature, 4 hrs; no lipids; Western blot with anti-His; signals given as % of FL to FL protein A self-interaction; conditions: one partner purified
binder,measurement,setting,value
"His-protA fragment aa 481–659, in vitro translated (domain or fragment, source: in vitro translated in nuclease-treated rabbit reticulocyte lysates) EKVRNVTKFPIKYVRYAAEFVKLVIPETIAGTGVPNSIGMIREEQDKVAQRARFDRVAPIMSTQTENSIKAFIKTEMYAAAKAPRNISTMAPEITIQSSAYSLPMAKIFKKIPWYCPGKNPKEITLRLAEVCLQDPDHELEEGDYTCMDGTQSPDYSDLLLLPIYMRYFAKQYRGQFKN","homotypic interaction, % of FL to FL protein A self-interaction",[1],2%
"His-protA fragment aa 255–480, in vitro translated (domain or fragment, source: in vitro translated in nuclease-treated rabbit reticulocyte lysates) EIVYNVTGGGEYRHSLWDYKGDTVTVVDEYGNLLIFDIEQRRVQGDEQHRLIWLLPKAKITDPLWIVGPTEWYDKLLVRKTVQQGRLKILWEPIADDLSIGLHGSNYSVSLKGELFEAIRTRISCKDSTPYVSDVERMLREAKHKNFLTDAPILYHCFQDDVIIRPNVVKTGSFPVTYNAIPKKAPSVTEDPKMPGQVVTTPLVSQPALFAGKGFNADKACIEGRI","homotypic interaction, % of FL to FL protein A self-interaction",[2],55%
"MBP-tagged full-length (FL) WhNV protein A (natural protein, also called MBP-protA; 1–1014 MBP/protA; source: E. coli strain TB1, purified (amylose resin); not shown: MBP, N-terminal, kept) MSSVIKTIVVKTLQCTVKCVCVGVRQQYGLLRRHPKTIACALVGGIIAHDVLHLYAAVYRVENPWEFVPTEGPRGVIVLRVYNALRFTAAKWRWNCWTIFGKFPFNSEQFSRIMETSTERKPDLRPLLVPAHETIEVYPCNNIHSHPRSAEFRSSANEYLVRSVRRAGYPPYVVSSSKRDFCDGNRFFYCPKDFGMQFRNDPISNNHALVFTDVDYYANMNRWLQLFLPTCLYTLVPTRLNYSNDEFAYRFENNEIVYNVTGGGEYRHSLWDYKGDTVTVVDEYGNLLIFDIEQRRVQGDEQHRLIWLLPKAKITDPLWIVGPTEWYDKLLVRKTVQQGRLKILWEPIADDLSIGLHGSNYSVSLKGELFEAIRTRISCKDSTPYVSDVERMLREAKHKNFLTDAPILYHCFQDDVIIRPNVVKTGSFPVTYNAIPKKAPSVTEDPKMPGQVVTTPLVSQPALFAGKGFNADKACIEGRIEKVRNVTKFPIKYVRYAAEFVKLVIPETIAGTGVPNSIGMIREEQDKVAQRARFDRVAPIMSTQTENSIKAFIKTEMYAAAKAPRNISTMAPEITIQSSAYSLPMAKIFKKIPWYCPGKNPKEITLRLAEVCLQDPDHELEEGDYTCMDGTQSPDYSDLLLLPIYMRYFAKQYRGQFKNLYNQIYKQRATTSSGVPYNPEMTIRSGSSITTHAGTLNNAFNIYAALRDMGYDETTAWDKVGAVFGDDSLNANHQGEFHSYIEHVTKVLGMRYKSNLRERGQPVLFLGRYFVDPITSYDSFADPMRTIGKLHATANKNVSVEQGAANKAHGYITTDSKTPIIGAWARRVLEITKKKFKNGTGEEQYRCSNAWPQKDEAAIRAAMAAVLEVDEAQLIAQNEAVLKVNSLDQFPVVFDTYYDHKQLAEVDGQLVGTDLHIKEEDERQPETSIDSVPSTGPPPSNGDPNAGGKPTDGPSKGKRKVKGRRPRTAGDPATLRLTDAGSSRRVKPPRKLRPEAKRGGRPIETLVFKNSSLS",stoichiometry N,[3],2
"His-protA fragment aa 1–254, in vitro translated (domain or fragment, also called 1–254 His/protA; wt protein A fragment aa 1–254; source: in vitro translated in nuclease-treated rabbit reticulocyte lysates) MSSVIKTIVVKTLQCTVKCVCVGVRQQYGLLRRHPKTIACALVGGIIAHDVLHLYAAVYRVENPWEFVPTEGPRGVIVLRVYNALRFTAAKWRWNCWTIFGKFPFNSEQFSRIMETSTERKPDLRPLLVPAHETIEVYPCNNIHSHPRSAEFRSSANEYLVRSVRRAGYPPYVVSSSKRDFCDGNRFFYCPKDFGMQFRNDPISNNHALVFTDVDYYANMNRWLQLFLPTCLYTLVPTRLNYSNDEFAYRFENN","homotypic interaction, % of FL to FL protein A self-interaction",[4],73%
